We go through one molecule from publication PMC8881745 (Protein expression and purification, 2022).

A word on the stoichiometry N: it is a count of units in the complex or per binding partner.

This experiment addresses PPP1CA(2-330), His6-MBP tag cleaved by TEV protease (human, UniProt P62136 2-330). In words: SEC. For orientation: SEC sorts molecules by how far they enter the pores of the column.

Sequence of PPP1CA(2-330), His6-MBP tag cleaved by TEV protease (P62136 2-330): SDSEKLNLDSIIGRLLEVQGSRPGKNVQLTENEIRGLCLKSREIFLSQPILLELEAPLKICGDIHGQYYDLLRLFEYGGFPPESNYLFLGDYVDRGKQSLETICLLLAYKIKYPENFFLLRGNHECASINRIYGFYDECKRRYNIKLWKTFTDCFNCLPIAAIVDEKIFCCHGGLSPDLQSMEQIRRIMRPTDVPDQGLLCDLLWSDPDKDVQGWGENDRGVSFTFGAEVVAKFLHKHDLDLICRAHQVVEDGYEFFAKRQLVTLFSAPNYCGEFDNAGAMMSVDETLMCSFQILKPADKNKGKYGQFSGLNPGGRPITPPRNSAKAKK

B1: SHOC2, native full-length (natural protein, human, UniProt Q9UQ13 1-582, looked up)
chain: MSSSLGKEKDSKEKDPKVPSAKEREKEAKASGGFGKESKEKEPKTKGKDAKDGKKDSSAAQPGVAFSVDNTIKRPNPAPGTRKKSSNAEVIKELNKCREENSMRLDLSKRSIHILPSSIKELTQLTELYLYSNKLQSLPAEVGCLVNLMTLALSENSLTSLPDSLDNLKKLRMLDLRHNKLREIPSVVYRLDSLTTLYLRFNRITTVEKDIKNLSKLSMLSIRENKIKQLPAEIGELCNLITLDVAHNQLEHLPKEIGNCTQITNLDLQHNELLDLPDTIGNLSSLSRLGLRYNRLSAIPRSLAKCSALEELNLENNNISTLPESLLSSLVKLNSLTLARNCFQLYPVGGPSQFSTIYSLNMEHNRINKIPFGIFSRAKVLSKLNMKDNQLTSLPLDFGTWTSMVELNLATNQLTKIPEDVSGLVSLEVLILSNNLLKKLPHGLGNLRKLRELDLEENKLESLPNEIAYLKDLQKLVLTNNQLTTLPRGIGHLTNLTHLGLGENLLTHLPEEIGTLENLEELYLNDNPNLHSLPFELALCSKLSIMSIENCPLSHLPPQIVAGGPSFIIQFLKMQGPYRAMV
In the case of B1, the “stoichiometry N” value is 1.
